Laboratory results from publication PMC7534926 (The Journal of Cell Biology, 2020).
Blank lines part the entries; values can stand above or below the molecule they belong to. No end group written: not given here. *: point of attachment. Biotin = O=C1N[C@H]2[C@H](CS[C@H]2CCCCC(=O)*)N1

Experiments:
Magi1 = Magi1 (UniProt Q4L1J4); test: proximity ligation assay; settings: reference: no treatment; sites S1242
Pdlim5 = Pdlim5 (UniProt Q62920); test: proximity ligation assay; settings: reference: no treatment; sites S1242
Pdlim5 PDZ domain = Pdlim5 PDZ domain (UniProt Q96HC4); test: PDZ-domain microarray probed with biotinylated peptide
Erbin PDZ domain = Erbin PDZ domain (UniProt Q96RT1); test: as above; settings: reference: unphosphorylated peptide; sites S1242,S1245
[1] = biological target: endogenous delta-catenin of rat hippocampal neurons (rat (endogenous in primary hippocampal neurons)) (UniProt O35116); test: proximity ligation
[2] = biological target: GST fusion of the PDZ domain of Erbin (array) (human, UniProt Q96RT1 1321-1410); test: peptide or protein array
GST fusion of the PDZ domain of Erbin (array), sequence (Q96RT1 1321-1410): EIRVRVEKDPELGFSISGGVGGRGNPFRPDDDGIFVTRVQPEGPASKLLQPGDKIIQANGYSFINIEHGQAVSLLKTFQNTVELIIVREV

endogenous delta-catenin of rat hippocampal neurons (rat (endogenous in primary hippocampal neurons)), sequence (O35116 whole entry, stated change not applied, the tested form may be a part): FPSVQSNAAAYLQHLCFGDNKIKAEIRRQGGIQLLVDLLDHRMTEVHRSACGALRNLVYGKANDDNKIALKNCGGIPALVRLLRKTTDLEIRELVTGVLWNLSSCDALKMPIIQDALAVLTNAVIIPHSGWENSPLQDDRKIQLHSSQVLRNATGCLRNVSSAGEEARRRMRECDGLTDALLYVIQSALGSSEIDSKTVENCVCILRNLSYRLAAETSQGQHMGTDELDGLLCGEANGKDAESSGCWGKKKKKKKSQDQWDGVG
Magi1, sequence (Q4L1J4 whole entry, looked up): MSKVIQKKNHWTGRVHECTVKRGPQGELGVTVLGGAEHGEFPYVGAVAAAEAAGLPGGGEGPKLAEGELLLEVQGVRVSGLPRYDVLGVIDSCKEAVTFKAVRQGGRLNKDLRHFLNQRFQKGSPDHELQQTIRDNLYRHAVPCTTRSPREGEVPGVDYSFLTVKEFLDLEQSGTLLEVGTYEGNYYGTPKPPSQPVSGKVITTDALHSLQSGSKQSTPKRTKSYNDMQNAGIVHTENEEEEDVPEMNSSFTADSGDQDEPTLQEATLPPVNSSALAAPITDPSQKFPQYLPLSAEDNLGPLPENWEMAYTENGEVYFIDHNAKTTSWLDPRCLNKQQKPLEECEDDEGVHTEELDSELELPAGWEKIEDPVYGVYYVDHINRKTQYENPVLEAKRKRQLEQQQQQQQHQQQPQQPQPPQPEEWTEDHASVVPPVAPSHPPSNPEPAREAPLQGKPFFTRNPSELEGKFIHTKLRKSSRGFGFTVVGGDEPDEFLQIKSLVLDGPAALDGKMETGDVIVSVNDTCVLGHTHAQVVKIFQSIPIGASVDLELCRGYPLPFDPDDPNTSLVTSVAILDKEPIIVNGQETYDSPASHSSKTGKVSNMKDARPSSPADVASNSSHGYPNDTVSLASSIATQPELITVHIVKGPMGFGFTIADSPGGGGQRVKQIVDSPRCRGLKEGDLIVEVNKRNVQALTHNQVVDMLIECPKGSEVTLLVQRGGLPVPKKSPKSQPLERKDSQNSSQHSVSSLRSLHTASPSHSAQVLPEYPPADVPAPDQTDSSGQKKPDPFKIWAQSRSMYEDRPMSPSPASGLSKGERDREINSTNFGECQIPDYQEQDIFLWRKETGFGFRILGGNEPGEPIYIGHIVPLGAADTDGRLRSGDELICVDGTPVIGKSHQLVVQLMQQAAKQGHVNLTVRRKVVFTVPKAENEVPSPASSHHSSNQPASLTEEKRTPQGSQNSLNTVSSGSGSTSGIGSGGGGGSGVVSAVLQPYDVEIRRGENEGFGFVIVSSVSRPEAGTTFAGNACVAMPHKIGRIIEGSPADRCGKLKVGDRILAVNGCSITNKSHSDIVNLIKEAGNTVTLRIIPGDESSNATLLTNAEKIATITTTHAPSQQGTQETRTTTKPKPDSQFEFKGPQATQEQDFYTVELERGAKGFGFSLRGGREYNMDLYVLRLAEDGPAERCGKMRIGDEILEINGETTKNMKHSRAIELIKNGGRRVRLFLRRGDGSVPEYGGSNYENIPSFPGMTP

- other: PLA puncta per cell (Magi1): weaker; reference 21.15 ± 7.24
- other: PLA puncta per cell (Pdlim5): stronger; reference 20.46 ± 1.41
Molecule: delta-catenin 20 µM DHPG, 10 min

- PLA puncta per cell (20 µM DHPG, 10 min) [1]: 8.95 puncta/cell
- PLA puncta per cell (no treatment) [1]: 21.1 puncta/cell
- PLA puncta per neuron (puncta per neuron) [1]: 16
Molecule: endogenous Magi1 of rat hippocampal neurons (from UniProt Q4L1J4 1-1255) (natural protein)

- PLA puncta per cell (20 µM DHPG, 10 min) [1]: 54.2 puncta/cell
- PLA puncta per cell (no treatment) [1]: 20.5 puncta/cell
- PLA puncta per neuron (puncta per neuron) [1]: 37.7
B1: endogenous Pdlim5 of rat hippocampal neurons (natural protein)
chain: MSNYNVSLVGPAPWGFRLQGGKDFNMPLTISSLKDGGKASQAHVRIGDVVLSIDGISAQGMTHLEAQNKIKACTGSLNMTLQRASAAAKSEPVAVQKGEPKEVVKPVPITSPAVSKVTSTTNMAYNKVPRPFGSVSSPKVTSIPSPSSAFTPAHAATSSHASPPPVAAVTPPPLSASGLHASANPSAAQCSSPPNTGKPAVHVPRQPTVTSVCSESAQELAEGQRRGSQGDIKQQNGPPRKHIVERNTEFYHIPTHSDASKKRLIEDTEDWRPRTGTTQSRSFRILAQITGTEHLKESENDNAKKANSTPEPSQQSASPLSAAESLESPGSNRPVVAGLRSAAAFKPVGSTSVKSPSWQRPNQAAPSTGRISNSASSSGTGAPMKPAVGPPQPSDQDTLVQRAEHIPAGKRTPMCAHCNQAIRGPFLVALGKSWHPEEFNCAHCKNTMAYIGFVEEKGALYCELCYEKFFAPECGRCQRKILGEVINALKQTWHVSCFVCVACGKPIRNNVFHLEDGEPYCETDYYALFGTICRGCEFPIEAGDMFLEALGSTWHDTCFVCSVCCESLEGQTFFSKKDKPLCKKHAHSVNF

More lines, now with the values behind:

Molecule: delta-catenin C-terminal PDZ-binding motif (from UniProt O35927) pS1242 + pS1245 peptide
- binding against the reference (Pdlim5 PDZ domain; reference: pS1242-only peptide, sites S1245): stronger
- binding against the reference (Pdlim5 PDZ domain; reference: pS1245-only peptide, sites S1242): stronger

Molecule: delta-catenin C-terminal PDZ-binding motif (from UniProt O35927) phosphorylated peptide (doubly phosphorylated probe assumed)
- binding against the reference (Erbin PDZ domain): same

Molecule: Biotin-TSHYPASPDSWV [delta-catenin PDZ-binding motif peptide, De-Phospho (Biotin-TSHYPASPDSWV)]
- binding result [2]: binds
